{
  "source": "patent US20100324271A1",
  "about": "(TOKAI UNIVERSITY EDUCATIONAL SYSTEM, published 2010)",
  "biological_target": "T1, fetuin (UniProt P12763 19-359, carrying complex type and O-linked oligosaccharides)",
  "T1 construct": "Natural glycoprotein, separated by SDS-PAGE and blotted onto PVDF; also called fetuin carrying complex type and O-linked oligosaccharides",
  "T1 sequence (looked up)": "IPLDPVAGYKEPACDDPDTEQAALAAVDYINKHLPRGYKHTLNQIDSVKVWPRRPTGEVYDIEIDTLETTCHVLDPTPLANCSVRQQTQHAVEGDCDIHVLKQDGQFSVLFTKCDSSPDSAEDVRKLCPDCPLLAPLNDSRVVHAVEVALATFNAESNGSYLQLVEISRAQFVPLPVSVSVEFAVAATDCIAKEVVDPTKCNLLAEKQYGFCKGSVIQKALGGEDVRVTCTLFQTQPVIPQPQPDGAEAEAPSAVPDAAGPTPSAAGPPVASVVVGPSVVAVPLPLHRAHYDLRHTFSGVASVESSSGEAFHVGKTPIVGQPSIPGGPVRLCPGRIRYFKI",
  "experiment": "Western blot, 5 µg/lane on PVDF, phage detected with HRP-labeled anti-M13 antibody",
  "protocol": "Fetuin, asialo-fetuin, RNase A, and RNase B (5 μg/lane) were separated by SDS-polyacrylamide gel electrophoresis (10% gel) and blotted onto a PVDF membrane. The SDS-PAGE gel was stained with Coomassie Brilliant Blue. The reactivity of phage antibody to natural glycoproteins was examined by Western blotting with M3-7 phage antibody followed by HRP-labeled anti-M13 phage antibody as described above.",
  "data": [
    {"binder": "M3-7 phage antibody (scFv, V domains shown, also called Man3-specific scFv-displaying phage antibody) VH: QVQLQQSGPGLVKASETLSLTCAVSGYSISSGYYWGWIRQPPGKGLEWIGNIYHSGNTYYNPSLKSRVTISRDTSKNHFSLKLKSVTAADTAVYYCARADPGYMIFNWFDPWGQGTLVTVSS VL: NFMLTQPPSASGTPGQRVTISCSGSSSNIGNNDVYWYQQFPGTAPKLLIYRNNQRPSGVPDRFSGSKSGTSASLAISGLRSEDEADYYCAAWDDSLIFGGGTKLTVLG", "values": [
      {"measurement": "binding result", "value": "no binding"}
    ]}
  ]
}
